Data on eleven sequences can be found in the Immune Epitope Database (IEDB).

In one assay the target is HLA-C*15:02. The assay can be described thus: IEDB peptide-MHC binding, purified MHC/direct/fluorescence; filed as Kd, often an IC50 or EC50 that approximates it; ≥ and ≤ were set here for values at or beyond the usual limits of such assays.
Assay [1] concerns the target HLA-B*46:01. The assay can be described thus: IEDB peptide-MHC binding, purified MHC/competitive/fluorescence; filed as Kd, often an IC50 or EC50 that approximates it; ≥ and ≤ were set here for values at or beyond the usual limits of such assays. As to conditions: source organism: Bacillus anthracis str. A0488.
For assay [2], the target named is HLA-B*15:01. The assay can be described thus: IEDB peptide-MHC binding, purified MHC/direct/fluorescence; filed as Kd, often an IC50 or EC50 that approximates it; ≥ and ≤ were set here for values at or beyond the usual limits of such assays.
For the next assay, the target named is HLA-A*26:01. Described as above. As to conditions: source organism: Variola virus.
The target in assay [3] is HLA-A*11:01. Described as above. As to conditions: source organism: Camelpox virus M-96.
Another assay concerns the target HLA-B*58:01. Described as above.
A further assay deals with HLA-B*48:01. Described as above. As to conditions: source organism: Camelpox virus M-96.
Another assay concerns the target HLA-A*26:02. The description is as above. Particulars: source organism: Variola virus.
The target of the next assay is HLA-B*08:03. Described as above. As to conditions: source organism: Variola virus.
The target of assay [4] is HLA-A*01:01. The assay is described as above.
For a further assay, the target named is HLA-B*08:01. The description is as above. Particulars: source organism: Variola virus.
A further assay has as its target HLA-B*18:01. The assay is described as above.
Another assay addresses HLA-B*57:01. The assay is described as above.
A further assay deals with HLA-A*69:01. The description is as above. As to conditions: source organism: Camelpox virus M-96.
For another assay, the target named is HLA-B*40:01. The description is as above.
Assay [5] deals with HLA-B*07:02. The description is as above.
The target of assay [6] is HLA-B*46:01. The description is as above. As to conditions: source organism: Camelpox virus M-96.
The target of assay [7] is HLA-A*03:01. The assay is described as above.
Another assay addresses HLA-A*26:03. The assay can be described thus: IEDB peptide-MHC binding, purified MHC/competitive/fluorescence; filed as Kd, often an IC50 or EC50 that approximates it; ≥ and ≤ were set here for values at or beyond the usual limits of such assays. Particulars: source organism: Vaccinia virus Copenhagen.
In assay [8] the target is HLA-A*02:01. The assay is described as above. As to conditions: source organism: Vaccinia virus Copenhagen.
For assay [9], the target named is HLA-B*27:05. The description is as above. Particulars: source organism: Vaccinia virus Copenhagen.
The target in the next assay is HLA-B*15:17. The description is as above. As to conditions: source organism: Vaccinia virus Copenhagen.
Assay [10] deals with HLA-A*31:01. The assay is described as above. Particulars: source organism: Vaccinia virus Copenhagen.
The target in the next assay is HLA-A*68:02. The description is as above. As to conditions: source organism: Vaccinia virus Copenhagen.
In assay [11] the target is HLA-B*07:02. The assay is described as above. Particulars: source organism: Influenza A virus (A/chicken/Scotland/1959(H5N1)).
For another assay, the target named is HLA-B*51:01. The assay can be described thus: IEDB peptide-MHC binding, purified MHC/direct/fluorescence; filed as Kd, often an IC50 or EC50 that approximates it; ≥ and ≤ were set here for values at or beyond the usual limits of such assays. As to conditions: source organism: Vibrio parahaemolyticus.
Another assay deals with HLA-C*14:02. The description is as above.
The target in assay [12] is HLA-B*15:01. The assay can be described thus: IEDB peptide-MHC binding, purified MHC/competitive/fluorescence; ≥ and ≤ were set here for values at or beyond the usual limits of such assays. As to conditions: source organism: Vaccinia virus Copenhagen.
Assay [13] addresses HLA-A*02:01. The description is as above. As to conditions: source organism: Vaccinia virus Copenhagen.
Assay [14] addresses HLA-A*11:01. The assay is described as above. As to conditions: source organism: Vaccinia virus Copenhagen.
Assay [15] has as its target HLA-A*01:01. The description is as above.
The target in assay [16] is HLA-A*03:01. The description is as above. As to conditions: source organism: Vaccinia virus Copenhagen.
A further assay has as its target HLA-A*68:01. The assay can be described thus: IEDB peptide-MHC binding, purified MHC/competitive/radioactivity; filed as Kd, often an IC50 or EC50 that approximates it; ≥ and ≤ were set here for values at or beyond the usual limits of such assays. As to conditions: source organism: Vaccinia virus WR.
For a further assay, the target named is HLA-A*33:01. The description is as above. As to conditions: source organism: Vaccinia virus WR.
Assay [17] concerns the target HLA-A*31:01. The description is as above. Particulars: source organism: Vaccinia virus WR.
The next assay concerns the target HLA-A*24:02. The assay can be described thus: IEDB peptide-MHC binding, purified MHC/competitive/fluorescence; ≥ and ≤ were set here for values at or beyond the usual limits of such assays. Particulars: source organism: Vaccinia virus Copenhagen.
In assay [18] the target is HLA-A*02:01. The assay can be described thus: IEDB peptide-MHC binding, purified MHC/direct/fluorescence; filed as Kd, often an IC50 or EC50 that approximates it; ≥ and ≤ were set here for values at or beyond the usual limits of such assays. Particulars: source organism: Mammarenavirus juninense.
For assay [19], the target named is HLA-B*27:05. The assay is described as above. Particulars: source organism: Mammarenavirus juninense.
The target in the next assay is HLA-C*03:03. The assay is described as above. As to conditions: source organism: Mammarenavirus juninense.
A further assay addresses HLA-A*02:11. The description is as above. As to conditions: source organism: Mammarenavirus juninense.
Assay [20] concerns the target HLA-A*31:01. The description is as above. As to conditions: source organism: Mammarenavirus juninense.
The target in another assay is HLA-A*29:02. The assay is described as above. Particulars: source organism: Mammarenavirus juninense.
The next assay deals with HLA-B*39:01. The description is as above. As to conditions: source organism: Mammarenavirus juninense.
For another assay, the target named is HLA-B*44:02. The assay is described as above. As to conditions: source organism: Mammarenavirus juninense.
Setting [21] is: source organism: Camelpox virus M-96.
The mark [22] stands for this setting: source organism: Cryptosporidium parvum.
[23] abbreviates: source organism: Vaccinia virus Copenhagen.
[24] abbreviates: source organism: Mammarenavirus juninense.

As usually defined, the Kd is the constant that tells how readily two partners part at equilibrium. As for LMAFSTGPF, the Kd in the assay with HLA-C*15:02 (source organism: Bacillus anthracis str. A0488) is not below 20000 nM; with HLA-B*46:01 [1], 2760 nM.

Regarding SLYKYLLLR, the Kd in the assay with HLA-B*15:01 [2] (setting [21]) is not below 20000 nM; with HLA-A*26:01 it was not below 20000 nM; with HLA-A*11:01 [3], 47 nM; in the assay with HLA-B*58:01 (setting [21]) it was not below 20000 nM; with HLA-B*48:01, not below 20000 nM; with HLA-A*26:02, not below 20000 nM. For the same sequence, the dissociation constant Kd with HLA-B*08:03, with HLA-A*01:01 [4] (setting [21]), with HLA-B*08:01, with HLA-B*18:01 (setting [21]), with HLA-B*57:01 (setting [21]) and with HLA-A*69:01 was not below 20000 nM throughout. Besides, the Kd in the assay with HLA-B*40:01 (setting [21]) is not below 20000 nM; with HLA-B*07:02 [5] (setting [21]), not below 20000 nM; in the assay with HLA-B*46:01 [6], not below 20000 nM; with HLA-A*03:01 [7] (setting [21]) it was 31 nM; with HLA-A*26:03, not below 20000 nM; with HLA-A*02:01 [8], 555 nM. Moreover, the Kd in the assay with HLA-B*27:05 [9] is 2460 nM; with HLA-B*15:17, not below 20000 nM; in the assay with HLA-A*31:01 [10], 1.17 nM; with HLA-A*68:02, 3900 nM.

As to SPYRTLMSCPI, the dissociation constant Kd with HLA-B*07:02 [11] was determined as 3.6 nM.

Turning to KVAQAAAAM, the dissociation constant (Kd) was 29 nM with HLA-B*15:01 [2] (source organism: Vibrio parahaemolyticus AQ3810), not below 20000 nM in the assay with HLA-B*51:01, 72 nM with HLA-C*14:02 (source organism: Vibrio antiquarius) and 34 nM with HLA-B*07:02 [5] (source organism: Vibrio parahaemolyticus).

As to KAFPLIQNM, the Kd is 12.4 nM with HLA-B*58:01 (setting [22]), 124 nM in the assay with HLA-B*57:01 (setting [22]) and 368 nM with HLA-C*14:02 (source organism: Cryptosporidium parvum Iowa II).

Usually IC50 stands for the midpoint of a concentration-inhibition curve. For KLNGAMVEY, the IC50 in the assay with HLA-B*15:01 [12] is 12200 nM; in the assay with HLA-A*02:01 [13], not below 95400 nM; with HLA-A*11:01 [14], 7970 nM; in the assay with HLA-A*01:01 [15] (setting [23]), not below 192000 nM; in the assay with HLA-A*03:01 [16], 11600 nM. In addition, the equilibrium dissociation constant (Kd) in the assay with HLA-A*68:01 was determined as 5.97 nM; with HLA-A*33:01 it was 1960 nM; with HLA-A*31:01 [17] it was 1180 nM.

As to LYQLLEAVY, the IC50 in the assay with HLA-B*15:01 [12] was not below 71900 nM; in the assay with HLA-A*02:01 [13] it was not below 72800 nM; in the assay with HLA-A*01:01 [15] (setting [23]), not below 199000 nM; with HLA-A*24:02, 68.7 nM.

In the assay with HLA-C*14:02 (source organism: human gammaherpesvirus 4), AASYARYVL gave a dissociation constant (Kd) of 491 nM.

Consider LQIPFAMQM, for which the Kd with HLA-B*15:01 [2] (source organism: SARS-CoV1) came out at 180 nM; with HLA-B*58:01 (source organism: SARS-CoV1), 986 nM; with HLA-B*40:01 (source organism: SARS-CoV1), 4040 nM; with HLA-C*15:02 (source organism: SARS-CoV1), 110 nM.

In the assay with HLA-A*01:01 [15] (source organism: Zaire ebolavirus), VVDPDDGSY came in with an IC50 of 44100 nM. That is a double-digit micromolar value.

As for ASSEPHCAL, the Kd in the assay with HLA-A*02:01 [18] is not below 20000 nM; with HLA-B*58:01 (setting [24]) it was not below 20000 nM; in the assay with HLA-B*27:05 [19], not below 20000 nM; with HLA-C*03:03 it was not above 1 nM; with HLA-A*01:01 [4] (setting [24]) it was not below 20000 nM; in the assay with HLA-A*02:11 it was 40 nM. The Kd with HLA-B*18:01 (setting [24]) was not below 20000 nM; in the assay with HLA-B*57:01 (setting [24]), not below 20000 nM; in the assay with HLA-A*31:01 [20], not below 20000 nM; with HLA-A*29:02 it was not below 20000 nM; in the assay with HLA-B*39:01 it was 1070 nM; with HLA-B*44:02, not below 20000 nM. In addition, in the assay with HLA-A*03:01 [7] (setting [24]), the Kd is not below 20000 nM.
